One substance from patent US20060294608A1 can be followed below.

For the experiment, the target named is CHO derived N' FLAG-mNR6 (N-terminal FLAG-tagged murine NR6) (mouse) (UniProt Q9JM58). Nature of the experiment: Biosensor (BiaCore) with M2 immobilised, after passage over M2 affinity resin. For orientation: SPR reads the build-up and loss of mass on a sensor chip optically.
Chain of UniProt Q9JM58 (Q9JM58 other isoform, or with tags, fused parts or gaps limits assumed): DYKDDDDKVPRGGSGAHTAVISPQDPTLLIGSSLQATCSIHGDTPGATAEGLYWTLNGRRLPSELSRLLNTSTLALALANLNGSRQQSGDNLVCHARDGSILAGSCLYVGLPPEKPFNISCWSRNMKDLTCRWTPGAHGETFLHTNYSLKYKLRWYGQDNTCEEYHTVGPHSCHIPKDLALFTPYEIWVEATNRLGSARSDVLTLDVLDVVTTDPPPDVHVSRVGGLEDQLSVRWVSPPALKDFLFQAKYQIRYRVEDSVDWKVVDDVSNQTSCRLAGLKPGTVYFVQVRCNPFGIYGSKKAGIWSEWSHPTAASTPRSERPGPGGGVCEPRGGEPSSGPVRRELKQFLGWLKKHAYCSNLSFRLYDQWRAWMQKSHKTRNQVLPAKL

As to “anti FLAG peptide M2 antibody (Kodak Eastman, USA)”, the M2 binding remaining in the unbound fraction came to 20%.
